# Publication PMC8001305
# Tests used:
# [1] = system: 2LTRZFP-GFP (designed six-finger zinc finger protein fused to GFP); test: BLI; conditions: BLI (BLItz, SA tips): 10 mM Tris-HCl pH 7.5, 90 mM KCl, 1 mM MgCl2, 90 uM ZnSO4, 5 mM DTT, 0.5 mM PMSF, temperature not stated; IN: 1:5 IN reaction buffer …
# [2] = molecular target: HIV-1 integrase (IN) (HIV-1) (UniProt P12497); test: BLI; conditions: BLI (BLItz, SA tips): 10 mM Tris-HCl pH 7.5, 90 mM KCl, 1 mM MgCl2, 90 uM ZnSO4, 5 mM DTT, 0.5 mM PMSF, temperature not stated; IN: 1:5 IN reaction buffer …
# [3] = system: 2LTRZFP-GFP (designed six-finger zinc finger protein fused to GFP); test: competition BLI; conditions: BLI (BLItz, SA tips): 10 mM Tris-HCl pH 7.5, 90 mM KCl, 1 mM MgCl2, 90 uM ZnSO4, 5 mM DTT, 0.5 mM PMSF, temperature not stated; IN: 1:5 IN reaction buffer …
# [4] = system: 2LTRZFP-GFP (designed six-finger zinc finger protein fused to GFP); test: competition ELISA; conditions: BLI (BLItz, SA tips): 10 mM Tris-HCl pH 7.5, 90 mM KCl, 1 mM MgCl2, 90 uM ZnSO4, 5 mM DTT, 0.5 mM PMSF, temperature not stated, IN: 1:5 IN reaction buffer …
Sequence,Kd [1],Kd [2],binding signal (nm BLI signal (0.55 without 2LTRZFP-GFP)) [2],binding signal (nm BLI signal (1.2 without competitor)) [3],binding signal [4],"inhibition of binding to immobilized ds2LTR ([4]; 2 uM dsNeg as competitor against immobilized ds2LTR, OD 1.0 vs 1.3 uninhibited)"
AAATCTCTAGCAGTACTGGATGGGCTAATT (double strand) [ds2LTR (30 bp HIV-1 2-LTR circle junction)],40 nM,75 nM,0.47,0.45,62 % inhibition,
TGACAGTGCTAGCGTATCATCTAGTCGACG (double strand) [dsNeg (30 bp irrelevant DNA)],,,,1,,22 % inhibition
